Results published in patent US20250144178A1, “PHARMACEUTICAL COMPOSITION FOR CANCER TREATMENT COMPRISING FUSION PROTEIN INCLUDING IL-12 AND ANTI-FAP ANTIBODY AND ANTICANCER AGENT” (KANAPH THERAPEUTICS INC., priority 2022, published 2025).
Like-named read-outs stand apart in the source and are kept apart here.

Assays:
[1] = test system: FAP-overexpressing mouse colorectal cancer CT26; test: Tumor growth inhibition by IL-12 mutation, FAP-overexpressing CT26, single i.v. dose; assay type: in vivo, BALB/c mice; details: 10 μg i.v. once, FIG. 28
Description: In order to evaluate the change in IL-12 activity according to the presence and extent of amino acid mutation, FAP-overexpressing mouse colorectal cancer CT26 was prepared by resuspending in PBS at a concentration of 5×10^5 cells/100 μl, and the tumor growth inhibitory ability was evaluated in a tumor animal model prepared by transplantation of the cells into 5-week-old female BALB/c mice.
Specifically, when the size of the tumor in the model reached 100 mm^3, the mice were randomly divided into groups. 100 μl of phosphate buffered saline (PBS) was administered once via tail vein injection of the control, and each of T1.01m, T1.02m and T1.03m was intravenously administered once at a dose of 10 μg.

[2] = test system: mouse FAP overexpressing B16F10 melanoma; test: Melanoma model, mouse FAP overexpressing B16F10; assay type: in vivo, C57BL/6J mice; details: during the test period
Description: In order to identify the anticancer effect through immune activation of the fusion protein, mouse FAP was overexpressed in the mouse melanoma cell line B16F10, which is known to have little immune cell infiltration, and then transplanted into C57BL/6J mice, and the tumor growth inhibitory ability was evaluated.
Specifically, the cells in culture were resuspended in Hanks' Balanced salt solution (HBSS, Gibco), and then 100 μl of 1×10^6 tumor cells per each mouse were transplanted into the subcutaneous region of the left the dorsal flank side of 6-week-old C57BL/6J mice.
(§1) Next, for drug efficacy evaluation, when the size of the tumor reached 70 to 100 mm^3, the mice were randomly divided into groups. As the control, PBS was administered, and as the test group, T1.03m was intravenously administered once at a dose of 10 μg and 100 μg.

[3] = test system: FAP-overexpressing mouse colorectal cancer cell line CT26 cells; test: Single administration of T1.03m in FAP-overexpressing CT26 model; assay type: in vivo, BALB/c mice
Description: Specifically, the tumor cells were transplanted into the right dorsal flank side of 6-week-old BALB/c mice, and when the size of the tumor of the animal model reached 70 to 100 mm^3, the mice were randomly divided into groups and the administration was performed. As the control, PBS was administered, and as the test group, 100 μl of T1.03m was intravenously administered once at a dose of 2 μg, 10 μg and 100 μg. The size of the tumor was measured in the same manner as in Example 4.1.

[4] = test system: LLC1 lung cancer with NIH-3T3 overexpressing FAP; assay type: in vivo, C57BL/6J mice
Description: Specifically, the NIH-3T3 cell line overexpressing FAP and the LLC1 cells were resuspended in Hanks' Balanced salt solution (HBSS, Gibco) at a concentration of 1×10^6 cells/50 μl, respectively, and the cells were mixed in a 1:1 ratio, and then 100 μl per each mouse was transplanted into the subcutaneous region of the right flank of 6-week-old C57BL/6J mice using a 1 cc syringe (25G).
as §1

recombinant mouse FAP = molecular target: T1, recombinant mouse FAP (Mus musculus, UniProt P97321); test: Surface plasmon resonance binding to recombinant mouse FAP; details: SPR, 2 μg/ml protein, FIGS. 13 and 14
T1 sequence (P97321 1-761): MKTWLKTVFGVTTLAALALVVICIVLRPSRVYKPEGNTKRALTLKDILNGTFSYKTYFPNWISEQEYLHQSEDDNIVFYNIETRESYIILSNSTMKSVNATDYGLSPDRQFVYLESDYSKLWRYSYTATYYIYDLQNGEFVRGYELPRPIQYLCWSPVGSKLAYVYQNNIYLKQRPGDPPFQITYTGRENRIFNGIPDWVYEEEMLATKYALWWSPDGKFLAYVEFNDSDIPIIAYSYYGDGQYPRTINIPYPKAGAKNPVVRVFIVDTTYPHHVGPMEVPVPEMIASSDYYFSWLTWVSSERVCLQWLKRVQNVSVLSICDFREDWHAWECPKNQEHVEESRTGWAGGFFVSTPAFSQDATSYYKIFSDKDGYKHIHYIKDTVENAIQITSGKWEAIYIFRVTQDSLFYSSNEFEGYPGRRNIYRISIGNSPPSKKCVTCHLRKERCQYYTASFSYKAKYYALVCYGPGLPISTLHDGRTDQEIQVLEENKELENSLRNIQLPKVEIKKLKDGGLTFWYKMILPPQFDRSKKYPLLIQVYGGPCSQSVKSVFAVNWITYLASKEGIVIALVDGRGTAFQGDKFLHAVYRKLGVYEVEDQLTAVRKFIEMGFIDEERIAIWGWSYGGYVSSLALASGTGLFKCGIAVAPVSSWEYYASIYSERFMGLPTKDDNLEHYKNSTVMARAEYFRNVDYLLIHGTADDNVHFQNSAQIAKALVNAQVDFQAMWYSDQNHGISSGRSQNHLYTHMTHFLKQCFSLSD
Description: The surface of the CM5 chip was activated with a 1:1 mixture of […] (N-hydroxysuccinimide) and […] (1-Ethyl-3-(3-dimethylaminopropyl) carbodiimide), and 25 μg/ml of anti-mouse IgG (Fc) antibody was immobilized for 400 seconds at a rate of 10 μl/min. The remaining active ester groups were blocked with 1 M ethanolamine. T1.01m, T1.02m and T1.03m were diluted to 2 μg/ml and reacted on the CM5 chip immobilized with the anti-mouse IgG (Fc) antibody. The recombinant mouse FAP was diluted to 200 nM in 1×HBS-EP+buffer solution and diluted by serial dilution. The diluted recombinant mouse FAP was reacted at a rate of 30 μl/min. The association and dissociation times were 180 seconds and 400 seconds, respectively. After the dissociation, stabilization was performed for 60 seconds, and then a regeneration was performed for 30 seconds with a 10 mM glycine pH 1.5 solution at a rate of 30 μl/min.

HEK-Blue IL-12 cells = test: Signaling ability in IL-12 recognizing cells (STAT4 inducible SEAP reporter); assay type: cell-based, human; details: serial dilution from 4 nM, 24 hours, FIG. 18
Description: The HEK-Blue IL-12 cell line transformed with the IL-12 receptor gene and the STAT4 inducible SEAP reporter gene into HEK293 cells, which are human embryonic kidney fibroblasts, was obtained from Invivogen (San Diego, USA). The HEK-Blue IL-12 cells were maintained in DMEM (GIBCO) containing 10% FBS (GIBCO), 100 μg/ml Normocin and 1×HEK-Blue selection.
Specifically, the HEK-Blue IL-12 cell line, which is an IL-12 recognizing cell, was diluted to 2.8×10^5 cells/ml and dispensed at 180 μl/well. Recombinant human IL-12, T1.01m, T1.02m, T1.03m and T1.12m were suspended at 4 nM and diluted by serial dilution. HEK-Blue IL-12 cells were treated with the diluted recombinant human IL-12, T1.01m, T1.02m, T1.03m and T1.12m. After 24 hours of treatment, the cell supernatant was collected and mixed with QUANTI-Blue Solution (Invivogen) in a 96-well plate. The reporter expression level was measured at 620 nm using a spectrophotometer (Thermo Fisher).

[5] = test system: LLC1 lung cancer with NIH-3T3 overexpressing FAP; test: Cancer targeting efficacy, LLC1 co-injected with FAP overexpressing NIH-3T3; assay type: in vivo, mouse; details: FIG. 32
Description: In order to compare the anticancer efficacy according to the cancer targeting of the dual antibody-type fusion protein in which the anti-FAP sequence structure and the IL-12 sequence structure form a Knob-in-Hole structure, the tumor growth inhibitory ability was identified in an animal model co-injected with NIH-3T3 cell overexpressing FAP, a mouse fibroblast cell line, and LLC1, a mouse lung cancer cell line, in a 1:1 ratio.
Specifically, for drug efficacy evaluation, when the size of the tumor reached 70 to 100 mm^3, the mice were randomly divided into groups. As the control, PBS was intraperitoneally administered twice a week. The group administered with T1.16m or T1.17m alone, the group administered with T1.16m and T1.17m in combination (T1.16m+T1.17m), and the group administered with T1.03m were used as test groups to evaluate the tumor growth inhibitory ability. T1.16m and T1.17m, which are dimers of anti-FAP and IL-12, respectively, were intraperitoneally administered twice a week at a dose of 0.01 μg, and T1.03m, which is a monomer fusion protein, was intraperitoneally administered twice a week at a dose of 0.02 μg to observe the tumor growth inhibitory ability.

B1: T1.03m: K&H bispecific: anti-mu FAP/mu IL-12 mut2, mu IgG2a DANG (seq18, seq19, seq22) (antibody)
heavy: QVQLQQSGAELARPGASVNLSCKASGYTFTNNGINWLKQRTGQGLEWIGEIYPRSTNTLYNEKFKGKATLTADRSSNTAYMELRSLTSEDSAVYFCARTLTAPFAFWGQGTLVTVSAAKTTAPSVYPLAPVCGDTTGSSVTLGCLVKGYFPEPVTLTWNSGSLSSGVHTFPAVLQSDLYTLSSSVTVTSSTWPSQSITCNVAHPASSTKVDKKIEPRGPTIKPCPPCKCPAPNLLGGPSVFIFPPKIKDVLMISLSPIVTCVVVAVSEDDPDVQISWFVNNVEVHTAQTQTHREDYGSTLRVVSALPIQHQDWMSGKEFKCKVNNKDLPAPIERTISKPKGSVRAPQVYVLPPPEEEMTKKQVTLWCMVTDFMPEDIYVEWTNNGKTELNYKNTEPVLDSDGSYFMYSKLRVEKKNWVERNSYSCSVVHEGLHNHHTTKSFSRTPGK
light: QIVLTQSPAIMSASPGEKVTMTCSASSGVNFMHWYQQKSGTSPKRWIFDTSKLASGVPARFSGSGSGTSYSLTISSMEAEDAATYYCQQWSFNPPTFGGGTKLEIKRADAAPTVSIFPPSSEQLTSGGASVVCFLNNFYPKDINVKWKIDGSERQNGVLNSWTDQDSKDSTYSMSSTLTLTKDEYERHNSYTCEATHKTSTSPIVKSFNRNEC
chain: MWELEKDVYVVEVDWTPDAPGETVNLTCDTPEEDDITWTSDQRHGVIGSGKTLTITVKEFLDAGQYTCHKGGETLSHSHLLLHKKENGIWSTEILKNFKNKTFLKCEAPNYSGRFTCSWLVQRNMDLKFNIKSSSSSPDSRAVTCGMASLSAEKVTLDQRDYEKYSVSCQEDVTCPTAEETLPIELALEARQQNKYENYSTSFFIRDIIKPDPPKNLQMKPLKNSQVEVSWEYPDSWSTPHSYFSLKFFVRIQAAAEKMAETEEGCNQKGAFLVEKTSTEVQCKGGNVCVQAQDRYYNSSCSKWACVPCRVRSGGGGSGGGGSGGGGSRVIPVSGPARCLSQSRNLLKTTDDMVKTAREKLKHYSCTAEDIDHEDITRDQTSTLKTCLPLELHKNESCLATRETSSTTRGSCLPPQKTSLMMTLCLGSIYEDLKMYQTEFQAINAALQNHNHQQIILDKGMLVAIDELMQSLNHNGETLRQKPPVGEADPYRVKMKLCILLHAFSTRVVTINRVMGYLSSAGGGGSGGGGSEPRGPTIKPCPPCKCPAPNLLGGPSVFIFPPKIKDVLMISLSPIVTCVVVAVSEDDPDVQISWFVNNVEVHTAQTQTHREDYGSTLRVVSALPIQHQDWMSGKEFKCKVNNKDLPAPIERTISKPKGSVRAPQVYVLPPPEEEMTKKQVTLSCAVTDFMPEDIYVEWTNNGKTELNYKNTEPVLDSDGSYFMVSKLRVEKKNWVERNSYSCSVVHEGLHNHHTTKSFSRTPGK
- tumor growth inhibitory ability compared to the control ([1]; 15 days after administration, control PBS): excellent tumor growth inhibitory ability
- tumor growth inhibitory ability compared to the group administered with T1.01m [1]: reduced
- change in body weight [2]: No change in body weight
- tumor growth inhibitory ability compared to the control ([3]; 2 μg, 10 μg and 100 μg i.v. once, control PBS, FIG. 29): high tumor growth inhibitory ability
- change in body weight ([3]; during the test period): No change in body weight
- tumor growth inhibitory ability compared to the control ([4]; 10 μg or 100 μg i.v. once, control PBS, FIG. 31): excellent tumor growth inhibitory ability
- change in body weight ([4]; mouse, in vivo): No change in body weight
- Binding to recombinant mouse FAP (recombinant mouse FAP): may bind to recombinant mouse FAP to specifically target FAP
- IL-12 recognition / STAT4 reporter gene expression (620 nm absorbance) (HEK-Blue IL-12 cells): IL-12 was recognized, and STAT4 expressed a reporter gene by inducing phosphorylation
- tumor growth inhibitory ability compared to the control ([5]; 0.02 μg i.p. twice a week, 10 days after administration, control PBS): excellent tumor growth inhibitory ability
- tumor growth inhibitory ability compared with T1.16m or T1.17m alone and their combination ([5]; T1.03m 0.02 μg, T1.16m and T1.17m 0.01 μg, i.p. twice a week): excellent tumor growth inhibitory ability
